Source: patent US20180037654A1 (ADURO BIOTECH HOLDINGS EUROPE B V, published 2018)

T1: Hum-Mou-CTLA-4 (human/mouse chimera)
T1 construct: Human residues on strand 1, 2, 5 and 6 and mouse residues on strand 3, 4, 7 and 8; transiently expressed on CHO-K1 cells; also called human-mouse variant; human-mouse exchange mutant
T1 chain: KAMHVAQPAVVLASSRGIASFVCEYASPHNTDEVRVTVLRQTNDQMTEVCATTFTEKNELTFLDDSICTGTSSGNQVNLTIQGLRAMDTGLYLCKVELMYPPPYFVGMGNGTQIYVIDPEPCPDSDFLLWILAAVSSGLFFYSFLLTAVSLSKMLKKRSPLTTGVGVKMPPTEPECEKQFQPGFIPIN

T2: human CTLA-4 (human, UniProt P16410 36-223)
T2 construct: Endogenous CTLA-4 of stimulated human CD3+ T cells (stained after fixation and permeabilization) and membrane CTLA-4 of the Jurkat reporter cells; also called hCTLA-4; CTLA-4 expressed on human CD3+ T cells
T2 sequence: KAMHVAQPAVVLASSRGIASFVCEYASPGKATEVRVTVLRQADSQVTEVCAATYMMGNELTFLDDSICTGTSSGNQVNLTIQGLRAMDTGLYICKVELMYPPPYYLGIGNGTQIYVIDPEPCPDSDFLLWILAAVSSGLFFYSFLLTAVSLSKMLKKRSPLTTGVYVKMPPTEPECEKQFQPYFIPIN

T3: Mou-Hum-CTLA-4 (mouse/human chimera)
T3 construct: Mouse residues on strand 1, 2, 5 and 6 and human residues on strand 3, 4, 7 and 8; transiently expressed on CHO-K1 cells; also called mouse-human variant; mouse-human exchange mutant
T3 chain: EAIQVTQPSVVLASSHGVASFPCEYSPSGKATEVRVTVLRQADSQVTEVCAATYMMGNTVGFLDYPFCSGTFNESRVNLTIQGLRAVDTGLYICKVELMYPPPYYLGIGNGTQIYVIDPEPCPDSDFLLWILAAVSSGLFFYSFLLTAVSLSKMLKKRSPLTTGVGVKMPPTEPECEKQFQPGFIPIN


Experiments:
[1] = target: T4, human CTLA-4 (Y166G and Y183G) expressed on CHO-K1.hCTLA-4 cells (human, UniProt P16410 36-223); assay: CELISA on CHO-K1.hCTLA-4 cells (Example 6)
Procedure: (§1) In short, CELISA for hCTLA-4 binding was performed on CHO-K1.hCTLA-4 cells. […] Once the cells were confluent culture medium was removed and cells were incubated for 1 hour with the hCTL4.27 antibodies and control antibodies (10 μg/ml and dilutions thereof) at 37° C., 5% CO₂ and 95% humidity. […] Cells were then washed with PBST followed by addition of Streptavidin-HRP conjugate on the cells, which was incubated for 1 hour at 37° C., 5% CO₂ and 95% humidity. […] Reactions were stopped with 0.5 M H₂SO₄ and absorbances were read at 450 and 610 nm. IC50 values represent the concentration at which half of the inhibition is observed.

[2] = target: T4, human CTLA-4 (Y166G and Y183G) …; assay: CELISA, blockade of biotinylated hCD80/Fc binding to CHO-K1.hCTLA-4 cells
Procedure: CHO-K1.hCTLA-4 cells were seeded in tissue culture plates and incubated at 37° C., 5% CO₂ and 95% humidity in culture medium. Once the cells were confluent culture medium was removed and cells were incubated for 1 hour with the humanized hCTL4.27 antibody variants (10 μg/ml and dilutions thereof) at 37° C., 5% CO₂ and 95% humidity. […] Cells were then washed with PBST followed by addition of Streptavidin-HRP conjugate on the cells, which was incubated for 1 hour at 37° C., 5% CO₂ and 95% humidity. […] Reactions were stopped with 0.5 M H₂SO₄ and absorbances were read at 450 and 610 nm. […] IC50 values represent the concentration at which half of the inhibition is observed.
Target sequence in this assay (P16410 36-223 Y201G/Y218G limits assumed): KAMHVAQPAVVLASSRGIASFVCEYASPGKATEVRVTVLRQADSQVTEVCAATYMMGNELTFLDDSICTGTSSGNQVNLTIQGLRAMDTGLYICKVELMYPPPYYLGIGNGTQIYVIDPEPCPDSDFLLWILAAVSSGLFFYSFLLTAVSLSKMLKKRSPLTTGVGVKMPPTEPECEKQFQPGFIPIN

[3] = target: T4, human CTLA-4 (Y166G and Y183G) …; assay: CELISA on CHO-K1.hCTLA-4 cells
Procedure: Binding of the humanized antibodies to hCTLA-4 was studied in CELISA format. CHO-K1.hCTLA-4 cells were seeded in culture medium (DMEM-F12 (Gibco) with 10% Fetal Bovine Serum (Hyclone) and Pen/Strep (Gibco)) in tissue culture plates and cultured at 37° C., 5% CO₂ and 95% humidity until they were confluent. Subsequently, culture medium was removed and cells were incubated for 1 hour at 37° C., 5% CO₂ and 95% humidity with purified hCTLA-4 antibodies (10 μg/ml and dilutions thereof). Next, cells were washed with PBS/0.05% Tween (PBST) and incubated for 1 hour at 37° C., 5% CO₂ and 95% humidity with goat-anti-human IgG-HRP (Southern Biotechnology) or goat-anti-mouse IgG-HRP (Southern Biotechnology). Subsequently, cells were washed 3 times with PBST and anti-hCTLA-4 immunoreactivity was visualized with TMB Stabilized Chromagen (Invitrogen). Reactions were stopped with 0.5 M H₂SO₄ and absorbances were read at 450 and 610 nm.
Target sequence in this assay (P16410 36-223 Y201G/Y218G limits assumed): as above

[4] = target: T1, Hum-Mou-CTLA-4; assay: CELISA on CHO-K1 cells transiently transfected with Hum-Mou-CTLA-4, panel Human/Mouse
Procedure: (§2) The cDNAs encoding these constructs (SEQ ID NO: 41 and 43, respectively) were synthesized and subcloned into the pCI-Neo vector (GeneArt). […] To this end CHO-K1 cells were transiently transfected, using Lipofectamine 2000 (Invitrogen), with the pCI-Neo vectors expressing human CTLA-4 (hCTLA-4), mouse CTLA-4 (mCTLA-4) (SEQ ID NO: 45), Hum-Mou-CTLA-4, and Mou-Hum-CTLA-4 respectively. The transfected cells were cultured at 37° C., 5% CO₂ and 95% humidity in medium (DMEM-F12 (Gibco) with 5% New Born Calf serum (Biowest) and Pen/Strep (Gibco)) until confluent. Subsequently, cells were trypsinized and seeded in tissue culture plates and cultured at 37° C., 5% CO₂ and 95% humidity in culture medium until confluent. Then, culture medium was removed and cells were incubated for 1 hour at 37° C., 5% CO₂ and 95% humidity with hCTLA-4 antibodies. Next, cells were washed with PBS/0.05% Tween (PBST) and incubated for 1 hour at 37° C., 5% CO₂ and 95% humidity with 1:2,000 goat-anti-human IgG-HRP (Jackson Immunoresearch). After that, cells were washed 3 times with PBST and anti-CTLA-4 immunoreactivity was visualized with TMB Stabilized Chromagen (Invitrogen).

[5] = target: T4, human CTLA-4 (Y166G and Y183G) …; assay: CELISA, blockade of biotinylated hCD86/Fc binding to CHO-K1.hCTLA-4 cells (Example 6)
Procedure: as §1

[6] = target: T2, human CTLA-4; assay: CELISA on CHO-K1 cells transiently transfected with human CTLA-4, panel Human
Procedure: as §2

[7] = target: T4, human CTLA-4 (Y166G and Y183G) …; assay: CELISA, blockade of biotinylated hCD80/Fc binding to CHO-K1.hCTLA-4 cells (Example 6)
Procedure: as §1

[8] = target: T3, Mou-Hum-CTLA-4; assay: CELISA on CHO-K1 cells transiently transfected with Mou-Hum-CTLA-4, panel Mouse/Human
Procedure: as §2

[9] = target: T4, human CTLA-4 (Y166G and Y183G) …; assay: CELISA, blockade of biotinylated hCD80/Fc binding to CHO-K1.hCTLA-4 cells (Example 6); blockade of hCD80/Fc binding to CHO-K1.hCTLA-4 cells
Procedure: as §1

[10] = target: T5, rhCTLA-4/Fc/6His (human); assay: BLI (Octet RED96), antibody amine-coupled to biosensor, rhCTLA-4/Fc 2.5-40 nM, 1:1 global fit
T5 construct: Bought from R&D Systems
T5 sequence (chain, as listed by the source limits assumed): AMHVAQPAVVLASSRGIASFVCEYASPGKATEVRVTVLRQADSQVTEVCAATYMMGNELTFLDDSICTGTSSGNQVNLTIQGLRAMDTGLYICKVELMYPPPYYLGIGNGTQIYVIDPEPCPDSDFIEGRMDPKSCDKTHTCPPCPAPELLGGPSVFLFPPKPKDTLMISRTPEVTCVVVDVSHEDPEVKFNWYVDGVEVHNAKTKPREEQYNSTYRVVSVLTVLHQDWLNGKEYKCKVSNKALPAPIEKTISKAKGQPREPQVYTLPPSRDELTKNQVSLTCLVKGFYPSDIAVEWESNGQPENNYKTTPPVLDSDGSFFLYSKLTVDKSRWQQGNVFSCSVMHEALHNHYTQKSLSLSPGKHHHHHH
Procedure: hCTLA4.27 binding kinetics and equilibrium binding constants were profiled using […] on the Octet RED96 and compared to several antibodies known in the art. […] Amine-reactive biosensors were pre-wet by immersing them in wells containing 0.1M MES pH=5.5 for 10 minutes. The biosensors were then activated using a 0.1M NHS/0.4M EDC mixture for 5 minutes. Antibodies were coupled by immersing the biosensors in a solution of 2.5 or 12 ug/mL antibody in 0.1M MES for 7.5 minutes. The biosensor surface was quenched using a solution of IM ethanolamine for 5 minutes. Biosensors were equilibrated in Octet kinetics buffer (ForteBio) for 5 minutes. Association of rhCTLA-4/Fc (R&D Systems) was observed by placing the biosensors in wells containing various rhCTLA-4/Fc concentrations (2.5-40 nM) and monitoring interferometry for 15 minutes. Dissociation was measured after transfer of the biosensors into kinetics buffer and monitoring of the interferometry signal for 45 minutes. The assay was run with a plate temperature of 30° C. The observed on and off rates (kon and kdis) were fit using a 1:1 binding global fit model comprising all concentrations tested, and the equilibrium binding constant KD was calculated.

| EC50 [1] [nM] | IC50 [2] [nM] | EC50 [3] [nM] | EC50 (read off the curve) [4] [nM] | IC50 [5] [nM] | EC50 (read off the curve) [6] [nM] | IC50 [7] [nM] | IC50 [9] [nM] | Kd [10] [nM] | koff [10] [s⁻¹] | kon [10] [M⁻¹ s⁻¹] | Binder | binding result [8] |
| --- | --- | --- | --- | --- | --- | --- | --- | --- | --- | --- | --- | --- |
| 0.053 | 1.61 | 0.033 | ~0.08 | 1.21 | ~0.06 | 1.6 |  |  |  |  | hCTLA4.27A.C4 (antibody, V domains shown, Chimeric: mouse variable domains on human IgG4, kappa; also called hCTLA4.27A chimeric hIgG4) VH: QVQLQQPGAVLVRPGVSVKLSCKASGYSFTTYWMNWVKQRPGQGLEWIGMIHPSDSETSLNQAFKDKATLTIDKSSSTAYMQLSSPTSEDSAVYFCARMGRRNPYYFDYWGQGTTLTVSS VL: DIQMTQSPVSLSVSVGETVTITCRPSENLYTNLAWYQQKQGKSPQLLVYGATNLADGVPSRFSGSGSGTQYSLRINSLQSEDFGTYYCQHLWGTPFTFGSGTKLELK | no binding (tested: log nM about 1.8 (about 60 nM)) |
| 0.053 | 2.17 | 0.048 |  | 2.17 |  |  | 2.71 | 2 | 0.00045 | 500000 | hCTLA4.27A (antibody, V domains shown, also called mouse hCTLA4.27A; parental antibody) VH: QVQLQQPGAVLVRPGVSVKLSCKASGYSFTTYWMNWVKQRPGQGLEWIGMIHPSDSETSLNQAFKDKATLTIDKSSSTAYMQLSSPTSEDSAVYFCARMGRRNPYYFDYWGQGTTLTVSS VL: DIQMTQSPVSLSVSVGETVTITCRPSENLYTNLAWYQQKQGKSPQLLVYGATNLADGVPSRFSGSGSGTQYSLRINSLQSEDFGTYYCQHLWGTPFTFGSGTKLELK |  |
